“And” between values parts separate entries of the source, which are not always exact repeats. Equal values may be shown once.

What is called Tm is the temperature at which the thermal transition is half complete.

The conditions of this data set: pH 6, Thermal, DSC, Sodium cacodylate 2 mM, reversible: yes(>80%), whole UniProt chain shown; for unfolding free energy: 25 °C.
The mark [1] stands for this setting: Paenibacillus macerans, CaCl2 1 mM.

B1: Beta-glucanase wild type, P23904 (protein)
chain: MKKKSCFTLVTTFAFSLIFSVSALAGSVFWEPLSYFNRSTWEKADGYSNGGVFNCTWRANNVNFTNDGKLKLGLTSSAYNKFDCAEYRSTNIYGYGLYEVSMKPAKNTGIVSSFFTYTGPAHGTQWDEIDIEFLGKDTTKVQFNYYTNGVGGHEKVISLGFDASKGFHTYAFDWQPGYIKWYVDGVLKHTATANIPSTPGKIMMNLWNGTGVDDWLGSYNGANPLYAEYDWVKYTSN
For the protein B1, under setting [1], the unfolding free energy was 9 kcal/mol; the Tm is 50.8 °C and 50.5 °C; the “unfolding enthalpy (calorimetric)” value is 139 kcal/mol and 156 kcal/mol. Moreover, under “Paenibacillus macerans”, the unfolding free energy stood at 6.1 kcal/mol, the Tm was 44.5 °C and the “unfolding enthalpy (calorimetric)” value stood at 119 kcal/mol.

B2: Beta-glucanase wild type, P07980 (protein)
chain: MKRVLLILVTGLFMSLCGITSSVSAQTGGSFFEPFNSYNSGLWQKADGYSNGDMFNCTWRANNVSMTSLGEMRLALTSPSYNKFDCGENRSVQTYGYGLYEVRMKPAKNTGIVSSFFTYTGPTEGTPWDEIDIEFLGKDTTKVQFNYYTNGAGNHEKFADLGFDAANAYHTYAFDWQPNSIKWYVDGQLKHTATTQIPAAPGKIMMNLWNGTGVDDWLGSYNGVNPIYAHYDWMRYRKK
For B2, the midpoint of thermal melting (Tm) runs as follows: (Bacillus amyloliquefaciens, CaCl2 1 mM) 58.9 °C; (Bacillus amyloliquefaciens) 48.7 °C.
